Experimental data as given in patent US20150203579A1 (Regeneron, published 2015).

T1: monkey PD-1 with mFc (monkey)
T1 construct: also called monkey PD-1-mFc; monkey PD-1 dimer
T1 chain: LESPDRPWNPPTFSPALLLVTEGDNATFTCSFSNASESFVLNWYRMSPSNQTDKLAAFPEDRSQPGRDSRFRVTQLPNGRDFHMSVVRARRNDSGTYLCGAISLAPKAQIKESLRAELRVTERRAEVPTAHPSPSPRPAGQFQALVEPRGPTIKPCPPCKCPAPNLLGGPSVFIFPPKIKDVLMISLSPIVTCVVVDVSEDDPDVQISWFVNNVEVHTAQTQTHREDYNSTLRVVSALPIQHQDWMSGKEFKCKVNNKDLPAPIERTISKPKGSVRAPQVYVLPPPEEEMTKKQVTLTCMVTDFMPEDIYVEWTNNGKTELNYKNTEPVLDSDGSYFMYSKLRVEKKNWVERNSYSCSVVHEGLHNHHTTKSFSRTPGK

B1: H4xH9037P (antibody, V domains shown)
VH: EVQLVESGGGLVQPGGSLRLSCAASGFTFDDYAMHWVRQAPGKGLEWVSGIGWSSGSIGYADSVKGRFTISRDNAKNSLYLQMDSLRPEDSALYYCAKAYTFMITLYFDYWGQGTLVTVSS
VL: not shown
notes: human IgG4 Fc with 2 or more amino acid changes (US20100331527); also called H4xH9037P2
B2: H4xH9045P (antibody, V domains shown)
VH: EVQLVESGGGLVQPGRSLRLSCAASGFTFDDYDMHWVRQAPGKGLEWVSGSGWNRGSLGYADSVKGRFTISRDNAKKSLYLQMNSVRVEDTALYYCAKGFVVVSAAYFDYWGQGTLVTVSS
VL: not shown
notes: human IgG4 Fc with 2 or more amino acid changes (US20100331527); also called H4xH9045P2
B3: H4H9057P2 (antibody, V domains shown)
VH: EVQLVESGGGLVQSGRSLRLSCAASGFTFDDYAMHWVRQPPGKGLEWVSGINWNRGRTGYADSVKGRFTISRDNAKNSLYLQMNDLRVEDTALYYCAKAEQWLDEGYFDYWGQGTLVTVSS
VL: not shown
notes: fully human; H4H prefix (human IgG4 Fc)
B4: H4xH9120P2 (antibody, V domains shown)
VH: QVQLVQSGAEVKRPGASVKVSCKASGYTFTSFYMYWVRQAPGQGLEWMGIINPSDGSTSNAQKFQGRVTMTRDTSTSTVYMELSSLRSEDTAVYYCARRVAGDIFDIWGQGTMVTVSS
VL: not shown
notes: human IgG4 Fc with 2 or more amino acid changes (US20100331527)
B5: H4xH9135P2 (antibody, V domains shown)
VH: EVQLVESGGSVVRPGGSLRLSCVVSGFTFEDYGLSWVRQIPGKGLEWVSGISWTGGNTGYADSVKGRFTISRDNAKNSLYLQMNSLRAEDTALYHCTRDRQWLMQWYFDYWGQGTLVTVSS
VL: not shown
notes: as for B4
B6: H4xH9145P2 (antibody, V domains shown)
VH: QVQLVESGGGVVQPGRSLRLSCSASGFTFSAYAMHWVRQAPGKGLEWVAAISYGGSDKYYADSVKGRFTISRDNSKNTLYLQMNSLRTDDTAVYYCAKSAHWNFFFDYWGQGTLVTVSS
VL: not shown
notes: as for B4
B7: H4xH9128P2 (antibody, V domains shown)
VH: QVQLQESGPGLVKPSETLSLTCTVSGGSISSYHWNWIRQSPGKGLEWIGYIYYIGSTDYNPSLESRVTISVDTSKNQFSLKLSSVTAADTAVYYCARVPVGATGASDVWGQGTMVTVSS
VL: not shown
notes: as for B4
B8: H1M7799N (antibody, V domains shown)
VH: EVQLVESGGGLVQPGGSLRLSCAASGFTVSNNYMSWVRQAPGKGLEWVSVIYSGGFTYYTDSVKGRFTISRHNSKNTLYLQMNSLRAEDTAVYYCARYYYDTSDYWTFFDYWGQGTLVTVSS
VL: EIVMTQSPATLSVSPGERATLSCRASQSVSSNLAWYQQKPGQAPRLLIYGASTRATGIPARFSGSGSGTEFTLTISSLQSGDFAVYYCQQYNNWPLTFGGGTKVEIN
notes: human variable regions, mouse IgG1 Fc

Target: T1, monkey PD-1 with mFc
Assay: SPR, captured mAb, 25 C;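 also: purified anti-PD-1 antibodies tested on Biacore 4000 or T200 instruments, rate constants obtained via 1:1 binding model fit, with KD as kd/ka and half-life as ln2/(60·kd)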

Binder	100 nM Monkey PD-1-mFc Bound (RU)	Kd [pM]	koff [s⁻¹]	kon [M⁻¹ s⁻¹]	t1/2 [min]
B1	58	912	0.000137	150000	84
B2	78	1720	0.000168	97800	69
B3	75	2980	0.000303	102000	38
B4	52	1910	0.000112	58400	104
B5	74	602	0.000143	238000	81
B6	84	2080	0.00015	72400	77
B7	64	1570	0.000124	78700	94

target: T2, dimeric biotinylated human PD-1 protein with a C-terminal human Fc tag (human, biotinylated (sites not given)); assay: competition ELISA: 200 pM biot-hPD-1-hFc to coated hPD-L1-mFc; * below theoretical bottom 1.0E-10 M
T2 construct: also called biot-hPD-1-hFc

Binder	IC50 [pM]
B8	59
B1	78

target: T3, full length human PD-1 on HEK293/hPD-1 cells (human, UniProt Q15116 25-288); assay: FACS, 100 nM mAb

Binder	ratio of MFI HEK293/hPD-1 to HEK293 parental cells
B8	26.9
B1	81.4
B2	93.7
B3	46.1
B4	91.9
B5	82.2
B6	51.2

target: T3, full length human PD-1 on HEK293/hPD-1 …; assay: FACS, 100 nM mAb, HEK293/hPD-1 cells;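 also: antibodies incubated with cells for 15-30 min on ice, bound antibody detected through a secondary F(ab′)2 by flow cytometry, with parental HEK293 cells tested in parallel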

Binder	MFI [MFI]
B8	6860
B1	8790
B2	8880
B3	6500
B4	9980
B5	9380
B6	11600
B7	9080

target: T3, full length human PD-1 on HEK293/hPD-1 …; assay: FACS dose response, HEK293/hPD-1 cells

Binder	EC50 [pM]	Max Geom. Mean MFI @ 100 nM [MFI]
B8	33.2	24400
B1	674	36400
B2	91.7	24700
B3	236	20000
B4	480	34100
B5	105	32800
B6	232	30600

target: T4, recombinant human PD-L1 expressed with a C-terminal mouse IgG2a Fc tag (human); assay: SPR Biacore 3000: 500 nM mAb alone (no hPD-1.hFc) over captured hPD-L1.mFc surface, control
T4 construct: also called hPD-L1-mFc; hPD-L1.mFc

Binder	500 nM of anti-PD-1 monoclonal antibody (RU)
B1	-4
B2	-4
B4	1
B5	-3
B6	-8
B7	-5

Target: T1, monkey PD-1 with mFc
Assay: SPR, captured mAb, 37 C;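 also: Real-time Biacore surface plasmon resonance biosensor readout of PD-1 reagent binding to purified anti-PD-1 monoclonal antibodies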

Binder	100 nM Monkey PD-1-mFc Bound (RU)	Kd [pM]	koff [s⁻¹]	kon [M⁻¹ s⁻¹]	t1/2 [min]
B1	24	3210	0.000897	280000	13
B2	65	5660	0.00136	241000	8
B3	28	29600	0.00477	161000	2.4
B4	46	6060	0.000502	82900	23
B5	52	2320	0.000794	342000	15
B6	94	4040	0.000609	151000	19
B7	60	4360	0.000816	187000	14

target: T5, recombinant human PD-1 expressed with a C-terminal human IgG1 Fc tag (human); assay: SPR Biacore 3000: 100 nM hPD-1.hFc + 500 nM mAb to captured hPD-L1.mFc;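 also: inhibition study with anti-PD-1 mAbs, SPR responses tracked in real time and read at the close of each step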
T5 construct: also called hPD-1-hFc; hPD1-hFc

Binder	% Blocking [%]	binding of the mixture (RU)
B1	104	-4
B2	105	-5
B3	43	57
B4	100	0
B5	102	-3
B6	106	-6
B7	105	-5

target: T6, recombinant human PD-1 dimer expressed with a C-terminal mouse IgG2a Fc tag (human); assay: BLI Octet: 100 nM hPD-1-mFc + 500 nM mAb to captured hPD-L1-hFc
T6 construct: also called hPD-1-mFc

Binder	% Blocking [%]	binding of the mixture (nm)
B8	100	0

target: T2, dimeric biotinylated human PD-1 protein …; assay: competition ELISA: 200 pM biot-hPD-1-hFc to coated hPD-L1-mFc

Binder	% blocking at 50 nM antibody [%]	IC50 [pM]
B8	100	–
B1	95	–
B2	95	130
B4	96	390
B5	96	150
B6	97	350
B7	97	190

target: PD-1 chimera: extracellular domain of human PD-1 with trans-membrane and cytoplasmic domains of human CD300a, … (human, UniProt Q9UGN4 181-299, limits assumed); assay: cell-based or functional assay

Binder	Concentration (M) of Antibody at 150% activation [M]	Emax mean [%] @ 100 nM [%]
B8	2.97e-08	183
B1	2.82e-09	195
B2	2.23e-08	176
B3	2.68e-08	212
B4	1.1e-08	166
B5	1.55e-09	193
B6	2.4e-09	185

target: T6, recombinant human PD-1 dimer expressed …; assay: competition ELISA: 1.5 nM hPD-1-mFc to coated hPD-L1-hFc; * below theoretical bottom 7.5E-10 M

Binder	IC50 [pM]
B8	220
B2	280
B3	190
B7	640

target: T6, recombinant human PD-1 dimer expressed …; assay: competition ELISA: 1.5 nM hPD-1-mFc to coated hPD-L1-hFc

Binder	% blocking at 200 nM antibody [%]	IC50 [pM]
B8	82	–
B1	100	890
B2	98	–
B3	98	–
B4	98	1000
B5	97	1100
B6	90	930
B7	98	–
